These substances were tested against plasma purified human AT-III (antithrombin III), in complex with low molecular weight heparin (human) (UniProt P01008) (assay: K0.5: AT-III conc. for 50% inhibition of FIXa cleavage of Pefafluor FIXa; AT-III/LMWH, 1 uM LMWH, 1 min).
plasma purified human AT-III (antithrombin III), in complex with low molecular weight heparin (human), sequence (P01008 33-464, one chain of several): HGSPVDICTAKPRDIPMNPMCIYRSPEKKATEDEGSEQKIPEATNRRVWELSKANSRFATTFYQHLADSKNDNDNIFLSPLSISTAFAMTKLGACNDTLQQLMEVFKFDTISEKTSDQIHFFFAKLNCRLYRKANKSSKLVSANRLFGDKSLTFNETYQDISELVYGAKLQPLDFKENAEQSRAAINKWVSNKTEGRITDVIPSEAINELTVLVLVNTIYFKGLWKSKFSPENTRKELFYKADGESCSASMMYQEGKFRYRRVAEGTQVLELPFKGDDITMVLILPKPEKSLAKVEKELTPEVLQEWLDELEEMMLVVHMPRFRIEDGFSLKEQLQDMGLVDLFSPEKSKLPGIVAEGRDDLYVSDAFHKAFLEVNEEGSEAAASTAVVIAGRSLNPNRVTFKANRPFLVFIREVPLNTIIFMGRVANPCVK

IC50 [µM] | Substance
0.0202 | Plasma Purified FIXa (from UniProt P00740 47-191; P00740 227-461) (enzyme)

What follows are substances tested against Factor VIIIa (recombinant FVIII, Kogenate FS, activated with alpha-thrombin) (UniProt P00451) (assay: apparent KD (KD-app): FX activation rate (Spectrafluor FXa fluorescence) vs FVIIIa titration, PC/PS vesicles, Ca2+; indirect functional assay).
Factor VIIIa (recombinant FVIII, Kogenate FS, activated with alpha-thrombin), sequence (P00451 20-391, chain 1 of 3): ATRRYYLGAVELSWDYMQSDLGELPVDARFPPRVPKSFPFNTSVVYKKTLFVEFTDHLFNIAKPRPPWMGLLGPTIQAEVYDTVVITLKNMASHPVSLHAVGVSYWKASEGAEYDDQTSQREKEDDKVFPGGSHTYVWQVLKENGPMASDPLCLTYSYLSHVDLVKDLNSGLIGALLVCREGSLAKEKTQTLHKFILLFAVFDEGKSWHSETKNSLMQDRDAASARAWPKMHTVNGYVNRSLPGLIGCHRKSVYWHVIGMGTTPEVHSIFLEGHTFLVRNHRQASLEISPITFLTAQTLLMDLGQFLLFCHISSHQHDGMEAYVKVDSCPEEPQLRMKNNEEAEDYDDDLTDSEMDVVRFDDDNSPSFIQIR
Factor VIIIa (recombinant FVIII, Kogenate FS, activated with alpha-thrombin), sequence (P00451 392-759, chain 2 of 3): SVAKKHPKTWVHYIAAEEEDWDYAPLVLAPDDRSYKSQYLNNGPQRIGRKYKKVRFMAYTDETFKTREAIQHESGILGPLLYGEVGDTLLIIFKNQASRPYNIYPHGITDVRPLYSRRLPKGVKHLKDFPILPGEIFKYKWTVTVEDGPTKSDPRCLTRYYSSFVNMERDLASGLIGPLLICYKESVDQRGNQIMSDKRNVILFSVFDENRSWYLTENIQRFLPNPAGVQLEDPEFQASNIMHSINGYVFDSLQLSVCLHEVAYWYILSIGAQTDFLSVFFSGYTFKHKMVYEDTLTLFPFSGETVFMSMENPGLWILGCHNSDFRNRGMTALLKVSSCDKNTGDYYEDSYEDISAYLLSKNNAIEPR
Factor VIIIa (recombinant FVIII, Kogenate FS, activated with alpha-thrombin), sequence (P00451 1709-2351, chain 3 of 3): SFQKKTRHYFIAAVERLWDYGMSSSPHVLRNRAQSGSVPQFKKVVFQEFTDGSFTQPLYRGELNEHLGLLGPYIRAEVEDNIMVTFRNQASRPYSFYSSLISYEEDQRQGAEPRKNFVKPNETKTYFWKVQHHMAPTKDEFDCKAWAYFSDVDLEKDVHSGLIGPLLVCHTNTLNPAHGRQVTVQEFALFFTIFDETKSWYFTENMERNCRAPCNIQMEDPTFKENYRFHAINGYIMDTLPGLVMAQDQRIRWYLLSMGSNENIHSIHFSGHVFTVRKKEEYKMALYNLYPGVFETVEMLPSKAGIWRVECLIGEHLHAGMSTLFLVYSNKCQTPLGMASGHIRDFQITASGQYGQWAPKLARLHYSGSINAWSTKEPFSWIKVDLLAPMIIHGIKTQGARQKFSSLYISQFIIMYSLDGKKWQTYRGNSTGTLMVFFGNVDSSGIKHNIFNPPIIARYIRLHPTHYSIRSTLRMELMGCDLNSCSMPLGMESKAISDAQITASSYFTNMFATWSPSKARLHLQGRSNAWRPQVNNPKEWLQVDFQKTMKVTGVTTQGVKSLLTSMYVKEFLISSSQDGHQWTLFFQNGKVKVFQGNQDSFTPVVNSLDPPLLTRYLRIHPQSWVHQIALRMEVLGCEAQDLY

Kd [µM] | Substance
0.0902 | BeneFIX Coagulation FIX (T148A), activated (FIXa) (from UniProt P00740 47-191; P00740 227-461) (enzyme)
0.0989 | FIXa variant K400A (from UniProt P00740 47-191; P00740 227-461) (enzyme)
0.0041 | FIXa variant R338E/E410N (from UniProt P00740 47-191; P00740 227-461) (enzyme)
0.0852 | FIXa variant R312Y (from UniProt P00740 47-191; P00740 227-461) (enzyme)
0.0955 | Catalyst Biosciences WT FIXa (recombinant wild-type FIXa) (from UniProt P00740 47-191; P00740 227-461) (enzyme)
0.067 | FIXa variant R318E (from UniProt P00740 47-191; P00740 227-461) (enzyme)
0.0615 | FIXa variant V202Y (from UniProt P00740 47-191; P00740 227-461) (enzyme)
0.0866 | FIXa variant K293A (from UniProt P00740 47-191; P00740 227-461) (enzyme)
0.34 | FIXa variant R318Y/R338E/R403E (from UniProt P00740 47-191; P00740 227-461) (enzyme)
0.0774 | FIXa variant D203Y (from UniProt P00740 47-191; P00740 227-461) (enzyme)
0.0549 | FIXa variant R338E/R403E/E410N (from UniProt P00740 47-191; P00740 227-461) (enzyme)
0.183 | FIXa variant R338E/R403E (from UniProt P00740 47-191; P00740 227-461) (enzyme)
0.0616 | FIXa variant D104N/K106S/Y155F/R318Y/R338E/R403E/E410N (from UniProt P00740 47-191; P00740 227-461) (enzyme)
0.0077 | FIXa variant R318Y/R338E/E410N (from UniProt P00740 47-191; P00740 227-461) (enzyme)
0.127 | FIXa variant N346D (from UniProt P00740 47-191; P00740 227-461) (enzyme)
0.047 | FIXa variant R318Y/R338E/R403E/E410N (from UniProt P00740 47-191; P00740 227-461) (enzyme)
0.0797 | FIXa variant T148A (from UniProt P00740 47-191; P00740 227-461) (enzyme)
0.0742 | FIXa variant E410N (from UniProt P00740 47-191; P00740 227-461) (enzyme)
0.13 | FIXa variant K400A/R403A (from UniProt P00740 47-191; P00740 227-461) (enzyme)

Kd [µM] | Substance
0.0773 | FIXa variant E239N (from UniProt P00740 47-191; P00740 227-461) (enzyme)
0.305 | FIXa variant D104N/K106S/I251S (from UniProt P00740 47-191; P00740 227-461) (enzyme)
0.192 | FIXa variant R318Y (from UniProt P00740 47-191; P00740 227-461) (enzyme)
0.0941 | FIXa variant A262S (from UniProt P00740 47-191; P00740 227-461) (enzyme)
0.0996 | FIXa variant E410S (from UniProt P00740 47-191; P00740 227-461) (enzyme)
0.0606 | FIXa variant A204M (from UniProt P00740 47-191; P00740 227-461) (enzyme)
0.0689 | FIXa variant R312L (from UniProt P00740 47-191; P00740 227-461) (enzyme)
0.91 | FIXa variant R403E/E410N (from UniProt P00740 47-191; P00740 227-461) (enzyme)
0.0813 | FIXa variant H257E (from UniProt P00740 47-191; P00740 227-461) (enzyme)
0.0529 | FIXa variant R312A (from UniProt P00740 47-191; P00740 227-461) (enzyme)
0.298 | FIXa variant K400E/R403E (from UniProt P00740 47-191; P00740 227-461) (enzyme)
0.0124 | FIXa variant D104N/K106S/R318Y/R338E/E410N (from UniProt P00740 47-191; P00740 227-461) (enzyme)
0.0524 | FIXa variant S319N/L321S (from UniProt P00740 47-191; P00740 227-461) (enzyme)
0.043 | FIXa variant R338E (from UniProt P00740 47-191; P00740 227-461) (enzyme)
0.0664 | FIXa variant K316N (from UniProt P00740 47-191; P00740 227-461) (enzyme)
0.654 | FIXa variant R403E (from UniProt P00740 47-191; P00740 227-461) (enzyme)
0.0755 | FIXa variant T241N/H243S (from UniProt P00740 47-191; P00740 227-461) (enzyme)
0.0452 | FIXa variant R312Q (from UniProt P00740 47-191; P00740 227-461) (enzyme)

The substances below were run against Factor VIIIa (recombinant FVIII, Kogenate FS, activated with alpha-thrombin) (UniProt P00451) (assay: functional KD-app: FVIIIa titrated (0-400 nM) on 2 pM FIXa, PC/PS vesicles, 500 nM FX, fluorogenic FXa substrate).

Kd [µM] | Substance
0.0078 | FIXa-K228N/K247N/N249S/R318Y/R338E/T343R/E410N (from UniProt P00740 47-191; P00740 227-461) (enzyme)
0.0098 | FIXa-R318Y/R338E/T343R (from UniProt P00740 47-191; P00740 227-461) (enzyme)
0.0147 | FIXa-K247N/N249S/R318Y/R338E/T343R (from UniProt P00740 47-191; P00740 227-461) (enzyme)
0.0085 | FIXa-Y155F/R338E/T343R/E410N (from UniProt P00740 47-191; P00740 227-461) (enzyme)
0.0084 | FIXa-Y155F/R318Y/R338E/T343R (from UniProt P00740 47-191; P00740 227-461) (enzyme)
0.0294 | FIXa-R338E/T343R/R403E/E410N (from UniProt P00740 47-191; P00740 227-461) (enzyme)
0.0175 | FIXa-K228N/R318Y/R338E/T343R/R403E/E410N (from UniProt P00740 47-191; P00740 227-461) (enzyme)
0.0154 | FIXa-Y155F/K247N/N249S/R338E/T343R (from UniProt P00740 47-191; P00740 227-461) (enzyme)
0.0153 | FIXa-Y155F/K247N/N249S/R318Y/R338E/T343R/R403E/E410N (from UniProt P00740 47-191; P00740 227-461) (enzyme)
0.0249 | FIXa-Y155F/K247N/N249S/R338E/E410N (from UniProt P00740 47-191; P00740 227-461) (enzyme)
0.0721 | FIXa-Y155F/R338E/T343R/R403E (from UniProt P00740 47-191; P00740 227-461) (enzyme)
0.038 | FIXa-Y155F/R318Y/T343R/E410N (from UniProt P00740 47-191; P00740 227-461) (enzyme)
0.0232 | FIXa-R318Y/R338E/T343R/R403E/E410S (from UniProt P00740 47-191; P00740 227-461) (enzyme)
0.0291 | FIXa-K228N/K247N/N249S/R318Y/R338E/T343R/R403E/E410N (from UniProt P00740 47-191; P00740 227-461) (enzyme)
0.0074 | FIXa-Y155F/R318Y/R338E/T343R/E410N (from UniProt P00740 47-191; P00740 227-461) (enzyme)
0.0061 | FIXa-R318Y/R338E/T343R/E410N (from UniProt P00740 47-191; P00740 227-461) (enzyme)
0.055 | FIXa-R338E/T343R/R403E (from UniProt P00740 47-191; P00740 227-461) (enzyme)
0.0075 | FIXa-R338E/T343R/E410N (from UniProt P00740 47-191; P00740 227-461) (enzyme)
0.0285 | FIXa-Y155F/R338E/T343R/R403E/E410N (from UniProt P00740 47-191; P00740 227-461) (enzyme)
0.0139 | FIXa-Y155F/K247N/N249S/R318Y/R338E/T343R/E410N (from UniProt P00740 47-191; P00740 227-461) (enzyme)
0.0841 | FIXa-R318Y/T343R/R403E/E410N (from UniProt P00740 47-191; P00740 227-461) (enzyme)
0.037 | FIXa-Y155F/K228N/K247N/N249S/R318Y/R338E/T343R/R403E/E410N (from UniProt P00740 47-191; P00740 227-461) (enzyme)

From patent US20210230570A1
